The values that follow are results of earlier work, collected in article PMC4815344.

For the data set, the target named is soluble epoxide hydrolase (Homo sapiens) (UniProt P34913).

pKd: −log10 of the molar value.

soluble epoxide hydrolase, sequence (P34913 whole entry): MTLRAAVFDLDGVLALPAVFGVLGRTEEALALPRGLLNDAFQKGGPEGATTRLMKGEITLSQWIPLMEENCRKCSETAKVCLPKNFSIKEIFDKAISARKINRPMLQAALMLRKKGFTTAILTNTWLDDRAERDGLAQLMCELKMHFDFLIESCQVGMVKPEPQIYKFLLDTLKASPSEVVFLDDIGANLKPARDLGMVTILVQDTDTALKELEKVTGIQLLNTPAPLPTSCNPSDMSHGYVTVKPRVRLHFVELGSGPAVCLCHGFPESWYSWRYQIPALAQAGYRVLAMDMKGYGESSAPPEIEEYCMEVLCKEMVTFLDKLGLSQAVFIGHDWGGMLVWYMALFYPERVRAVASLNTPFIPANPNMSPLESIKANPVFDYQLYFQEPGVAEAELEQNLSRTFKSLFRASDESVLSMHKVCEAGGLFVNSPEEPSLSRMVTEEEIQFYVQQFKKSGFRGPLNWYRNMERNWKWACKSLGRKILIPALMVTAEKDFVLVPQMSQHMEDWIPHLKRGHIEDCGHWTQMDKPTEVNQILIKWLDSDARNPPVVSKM

As to “soluble epoxide hydrolase (from UniProt P34913)”, the negative logarithm of the Kd (pKd) was 11.30.
